From CN116284408A (SUNSHINE GUOJIAN PHARMACEUTICAL SHANGHAI CO LTD, dated 2023)
Changes are numbered by the printed parent chain.

B1: ch-27A3 (antibody, human IgG1, kappa, V domains shown)
VH: QVQLQQPGAELVRPGASVKLSCKASGYSFTIYWMHWVKQRPGQGLEWIGMSHPSDSESRLNQKFKDKATLTVDKSSSTAYMQLSSPTSEDSAVYYCSRPYYGSSAWFADWGQGTLVTVSA
VL: DIVMTQSPSSLAMSVGQKVTMSCKSSQSLLNSSNQKNYLAWYQQKPGQSPKLLIYFASTRESGVPDRFIGSGSGTDFTLSISSVQAEDLADYFCQQHYSFPLTFGAGTKLELRR
notes: also called 嵌合抗体ch-27A3
B2: ch-19E11 (antibody, human IgG1, kappa, V domains shown)
VH: EVQLQQSGPELEKPGASVKISCKASGFSFTGYNMNWVKQSNGKSLEWIGNIDPYYGGTTYNQKFKGKATLTVDISSSTAHMELKSLTSEDSAVYFCARSVTTVGYPMDYWGQGTSVTVSS
VL: DIVMTQSPSSLAMSVGQKVTMNCKSSQSLLNSYNHKNCLAWYQQKPGQSPKLLISFASARESGVPDRFIGSGSGTDFTLTISSVQAEDLADYFCHQHYTSPLTFGAGTKLELKR
notes: also called 嵌合抗体ch-19E11
B3: 27A3 (antibody, V domains shown)
VH: B1 VH
VL: DIVMTQSPSSLAMSVGQKVTMSCKSSQSLLNSSNQKNYLAWYQQKPGQSPKLLIYFASTRESGVPDRFIGSGSGTDFTLSISSVQAEDLADYFCQQHYSFPLTFGAGTKLELR
notes: Mouse monoclonal antibody from a hybridoma, purified on Protein G; also called 鼠源抗体27A3; 杂交瘤抗体27A3
B4: 19E11 (antibody, V domains shown)
VH: B2 VH
VL: DIVMTQSPSSLAMSVGQKVTMNCKSSQSLLNSYNHKNCLAWYQQKPGQSPKLLISFASARESGVPDRFIGSGSGTDFTLTISSVQAEDLADYFCHQHYTSPLTFGAGTKLELK
notes: Mouse monoclonal antibody from a hybridoma, purified on Protein G; also called 鼠源抗体19E11; 杂交瘤抗体19E11
B5: 8H2 (antibody, V domains shown)
VH: EVNLVESGGGLVKPGGSLKLSCAASGFAFSNYDMSWVRQTPEKRLEWVATISGGGSYTYYPDNVKGRFTISRDNAMNTLYLQMSSLRSEDTALYYCASVNWGFPYWGQGTLVTVSA
VL: DIVMSQSPSSLAVSIGEKVTMSCKSSQSLLYSRNQKNYLAWYQQKPGQSPILLIYWTSTRESGVPDRFTGSGSGTDFTLTISGVKAEDLAVYYCQQYYTSPWTFGGGTRLEIK
B6: 15D10 (antibody, V domains shown)
VH: QVQLQQPGAELVKPGASVKMSCKASGYTFTTYWMHWVKQRSGQGLEWIGVIDPSDSYTRYNQKFKDKATLTVDTSSSTAYMHLTSLTSEDSAVYYCTRSGIGNSFIMDYWGQGTSVTVSS
VL: QVVLTQSPAIMPAFPGEKVTISCSASSSVIYMFWYQQKPGSSPKPWIYRTSNLASGVPARFTGSGSGTSYSLTISSMEAEDAATYYCQQYHSYPLTFGVGTKLELK
B7: 56E8 (antibody, V domains shown)
VH: QVQLKESGPGLVAPSQSLSITCTVSGFSLTAYGVHWVRQPPGKGLEWLGGIWAGGSTKSNSALMSSLSISKDNSKSQVFLKMNSLQTDDSAMYYCARALFYGYFDVWGAGTTVTVSS
VL: DIVMTQSQKFMSTSVGDRVSVTCKASQSVDTNVAWYQQRPGQSPEALIFSASYRYSGVPDRFTGSGSGTDFTLTISNVQSEDLAEYFCQQYNVYPYTFGGGTNLEIK
B8: 50A5 (antibody, V domains shown)
VH: B7 VH with S56N, K58Q, N60H, S66R, S68T, N73I, K81R, Y103N
VL: B7 VL with K9R, N32S, V93S
B9: 11C8 (antibody, V domains shown)
VH: B7 VH with K58Q, S66R, N73S, K81R, Y103N
VL: B7 VL with N32S, S76N, V93S
B10: 23F6 (antibody, V domains shown)
VH: QVQLKESGPGLVAPSQSLSITCTVSGFSLTAYGVHWVRQPPGKGLEWLGGIWAGGNTQSHSALMSRVSISKDISKRQVFLKMDRLQTDDSAIYYCARALFYGNFDVWGAGTTVTVSS
VL: B7 VL with K9R, N32S, V93S, I106M, K107R
B11: 45D1 (antibody, V domains shown)
VH: EMQLVESGGDLVKPGGSLKLSCAVSGFTFSTYDMSWIRQTPDKRLEWVATISSGGSYTYYPDSVKGRFTISRDNAKNTLYLQMSSLQSEDTAIYYCASLNWGFDHWGQGTTLTVSS
VL: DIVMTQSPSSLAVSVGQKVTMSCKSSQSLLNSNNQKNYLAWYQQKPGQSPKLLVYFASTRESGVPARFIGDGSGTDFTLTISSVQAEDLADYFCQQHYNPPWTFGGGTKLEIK
B12: 51E12 (antibody, V domains shown)
VH: QVQLQQSGPELVKPGASVKISCKVSGNAFSLSWMNWVKQRPGQGLEWIGRIYPGDGDSNYNGKFKGKATLTADKSSSTVFMQLSSLTSVDSAVYFCANYYGSSSWFVYWGQGTLVTVSA
VL: DVVMTQTPLSLPVSLGDQASISCRSSQSLVHSYGNTYLHWYLQKPGQSPKLLIYKVSNRFSGVPDRFSGSGSGTDFTLKISRVETEDLGVYFCSQSTHFPWTFGGGTKLEIK
B13: hu-27A3 (antibody, human IgG1, kappa, V domains shown)
VH: QVQLVQSGAEVKKPGASVKVSCKASGYSFTIYWMHWVRQAPGQGLEWIGMSHPSDSESRLNQKFKDRATLTVDKSTSTAYMELSSLRSEDTAVYYCSRPYYGSSAWFADWGQGTLVTVSA
VL: DIVMTQSPDSLAVSLGERATINCKSSQSLLNSSNQKNYLAWYQQKPGQSPKLLIYFASTRESGVPDRFSGSGSGTDFTLTISSLQAEDVAVYYCQQHYSFPLTFGAGTKLELRR
notes: Humanized IgG1/kappa, made in HEK-293E cells; also called 27A3人源化抗体; 人源化后的27A3
B14: hu-19E11 (antibody, human IgG1, kappa, V domains shown)
VH: QVQLVQSGAEVKKPGASVKVSCKASGFSFTGYNMNWVRQAPGQSLEWIGNIDPYYGGTTYNQKFKGRATLTVDISISTAYMELSRLRSDDTAVYFCARSVTTVGYPMDYWGQGTSVTVSS
VL: B13 VL with S33Y, Q35H, Y38C, Y55S, T59A, Y93F, Q95H, S99T, F100S, R113K
notes: Humanized IgG1/kappa, made in HEK-293E cells; also called 19E11人源化抗体; 人源化后的19E11

Biological target: T1, 人MUC17-Fc蛋白 (human, UniProt Q685J3 4131-4390)
T1 construct: range 4131-4390; No linker is described; also called MUC17抗原; not shown: C-terminal Fc tag
Experiment: ELISA, coated MUC17 antigen, chimeric antibody titrated

Row | EC50 [nM] | Binder
1 | 0.0785 | B1
2 | 0.14 | B2

Biological target: T2, MUC17 on LS174T colorectal cancer cells (human, UniProt Q685J3 26-4493)
Experiment: flow cytometry on LS174T cells, murine antibody titrated
Design: Top: unit not given here

Row | EC50 [µg/mL] | Binder
3 | 0.00656 | B3
4 | 0.024 | B4

Biological target: MUC17 on LS174T colorectal cancer cells (human, UniProt Q685J3 26-4493)
Experiment: as above
Design: Top: unit not given here

Row | EC50 [µg/mL] | Top | Binder
5 | 0.164 | 445 | B5
6 | 3.43 | 382 | B6
7 | 0.11 | 296 | B7
8 | 0.542 | 500 | B8
9 | 0.87 | 469 | B9
10 | 0.395 | 460 | B10
11 | 0.273 | 457 | B11
12 | 0.0472 | 878 | B12

Biological target: T2, MUC17 on LS174T colorectal cancer cells
Experiment: flow cytometry on LS174T cells

Row | EC50 [nM] | Binder
13 | 0.03 | B13
14 | 0.085 | B14

Biological target: T2, MUC17 on LS174T colorectal cancer cells
Experiment: flow cytometry on LS174T cells, chimeric antibody titrated

Row | EC50 [nM] | Binder
15 | 0.0435 | B1

Biological target: T1, 人MUC17-Fc蛋白
Experiment: ELISA, coated MUC17 antigen, antibody titrated

Row | EC50 [nM] | Binder
16 | 0.0785 | B1
17 | 0.0766 | B13
18 | 0.131 | B14
19 | 0.14 | B2

Biological target: T1, 人MUC17-Fc蛋白
Experiment: ELISA, MUC17-Fc coated, murine antibody titrated

Row | EC50 [µg/mL] | Top [OD450] | Binder
20 | 0.0556 | 2.74 | B5
21 | 0.0202 |  | B3
22 | 0.0317 | 2.79 | B6
23 | 0.0276 | 1.97 | B7
24 | 0.0813 | 2.64 | B8
25 | 0.108 | 2.25 | B9
26 | 0.0623 | 2.88 | B10
27 | 0.036 | 2.87 | B11
28 | 0.0372 | 2.88 | B12
29 | 0.0376 |  | B4
